Assay [1] concerns the target full-length human MISRII (human) (UniProt Q16671). In words: cell-based or functional assay.
For assay [2], the target named is active recombinant MIS (LRMIS) (human) (UniProt P03971). In words: sandwich ELISA: recombinant AMH (25 nM) captured on coated polyclonal anti-AMH, B10 titrated 666-0 nM, detected with anti-mouse Fc HRP.
For assay [3] the target is unchanged. As to the kind of experiment: cell-based or functional assay.

Chain of UniProt Q16671 (Q16671 18-573): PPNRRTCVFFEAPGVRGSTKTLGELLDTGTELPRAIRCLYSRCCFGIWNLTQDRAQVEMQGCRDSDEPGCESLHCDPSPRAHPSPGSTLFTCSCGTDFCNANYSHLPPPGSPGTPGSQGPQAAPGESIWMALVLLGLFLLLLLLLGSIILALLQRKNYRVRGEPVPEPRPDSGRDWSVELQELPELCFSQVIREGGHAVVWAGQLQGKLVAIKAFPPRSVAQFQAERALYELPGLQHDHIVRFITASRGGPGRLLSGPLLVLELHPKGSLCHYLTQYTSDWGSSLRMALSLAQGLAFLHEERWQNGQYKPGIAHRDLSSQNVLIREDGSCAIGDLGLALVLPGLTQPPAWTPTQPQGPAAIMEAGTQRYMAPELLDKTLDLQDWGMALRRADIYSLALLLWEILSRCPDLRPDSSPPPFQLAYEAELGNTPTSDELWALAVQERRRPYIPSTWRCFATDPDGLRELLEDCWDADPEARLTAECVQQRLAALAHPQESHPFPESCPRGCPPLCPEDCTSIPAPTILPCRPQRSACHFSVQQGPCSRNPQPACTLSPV
Chain of UniProt P03971 (P03971 26-560): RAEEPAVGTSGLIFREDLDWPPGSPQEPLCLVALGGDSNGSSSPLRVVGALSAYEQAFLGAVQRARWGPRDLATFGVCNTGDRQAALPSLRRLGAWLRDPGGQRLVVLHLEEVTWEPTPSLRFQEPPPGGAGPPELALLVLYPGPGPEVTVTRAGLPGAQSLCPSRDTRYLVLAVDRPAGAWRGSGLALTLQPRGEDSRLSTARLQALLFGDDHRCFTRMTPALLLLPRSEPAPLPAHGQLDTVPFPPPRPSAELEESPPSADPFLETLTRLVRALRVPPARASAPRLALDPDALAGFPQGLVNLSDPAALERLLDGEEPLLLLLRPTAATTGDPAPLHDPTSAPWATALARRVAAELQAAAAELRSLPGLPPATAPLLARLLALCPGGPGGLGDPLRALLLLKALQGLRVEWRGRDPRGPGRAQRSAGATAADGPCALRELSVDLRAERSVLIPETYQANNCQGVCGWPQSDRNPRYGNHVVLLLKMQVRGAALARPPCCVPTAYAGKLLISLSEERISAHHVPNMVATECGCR

Take “active recombinant MIS (LRMIS) (from UniProt P03971 26-560) (ligand)”: in assay [1], the Apoptosis, evaluated by measuring caspase-3/7 activity (COV434-MISRII cells) came out at 12.5 nM and the Apoptosis, evaluated by measuring caspase-3/7 activity (SKOV3-MISRII cells) turned out to be 6.3 nM.

B1: anti-MIS antibody B10 (antibody, V domains shown)
VH: EVQLVESGGSLVKPGGSLRLSCAASGFTFSNYNMNWVRQAPGKGLEWISDINGSSRSIYYADFVKGRFTISRDNATNSLYLQMNSLRAEDTAVYYCVRSSYYGGGMDVWGRGTLVTVSS
VL: QSVLTQPASVSGSPGQSITISCAGTSSDVGGYNYVSWYQQHPGKAPKLMIYYDSYRPSGVSNRFSGSKSGNTASLTISGLQAEDEADYYCSSYTDYSTRVFGGGTKLAVLG
For B1, in assay [2], the concentration giving a half-maximal response (EC50) was determined as 50.4 nM. Besides, the decrease in Caspase-3/7 activity induced by 25 nM MIS (fold change relative to untreated cells) in assay [3] is 40%.
